This test has as its target F-actin (rabbit, UniProt P68135 1-377). Nature of the test: co-sedimentation.

B1: β-III-spectrin-FLAG fragment (amino acids 1-1066), wild-type (domain or fragment)
chain: MSSTLSPTDFDSLEIQGQYSDINNRWDLPDSDWDNDSSSARLFERSRIKALADEREAVQKKTFTKWVNSHLARVTCRVGDLYSDLRDGRNLLRLLEVLSGEILPKPTKGRMRIHCLENVDKALQFLKEQKVHLENMGSHDIVDGNHRLTLGLVWTIILRFQIQDISVETEDNKEKKSAKDALLLWCQMKTAGYPNVNVHNFTTSWRDGLAFNAIVHKHRPDLLDFESLKKCNAHYNLQNAFNLAEKELGLTKLLDPEDVNVDQPDEKSIITYVATYYHYFSKMKALAVEGKRIGKVLDHAMEAERLVEKYESLASELLQWIEQTIVTLNDRQLANSLSGVQNQLQSFNSYRTVEKPPKFTEKGNLEVLLFTIQSKLRANNQKVYTPREGRLISDINKAWERLEKAEHERELALRTELIRQEKLEQLAARFDRKAAMRETWLSENQRLVSQDNFGLELAAVEAAVRKHEAIETDIVAYSGRVQAVDAVAAELAAERYHDIKRIAARQHNVARLWDFLRQMVAARRERLLLNLELQKVFQDLLYLMDWMEEMKGRLQSQDLGRHLAGVEDLLQLHELVEADIAVQAERVRAVSASALRFCNPGKEYRPCDPQLVSERVAKLEQSYEALCELAAARRARLEESRRLWRFLWEVGEAEAWVREQQHLLASADTGRDLTGALRLLNKHTALRGEMSGRLGPLKLTLEQGQQLVAEGHPGASQASARAAELQAQWERLEALAEERAQRLAQAASLYQFQADANDMEAWLVDALRLVSSPELGHDEFSTQALARQHRALEEEIRSHRPTLDALREQAAALPPTLSRTPEVQSRVPTLERHYEELQARAGERARALEAALALYTMLSEAGACGLWVEEKEQWLNGLALPERLEDLEVVQQRFETLEPEMNTLAAQITAVNDIAEQLLKANPPGKDRIVNTQEQLNHRWQQFRRLADGKKAALTSALSIQNYHLECTETQAWMREKTKVIESTQGLGNDLAGVLALQRKLAGTERDLEAIAARVGELTREANALAAGHPAQAVAINARLREVQTGWEDLRATMRRREESLGEARR
In general, Kd refers to a measure of binding affinity in units of concentration. B1 showed a Kd of 24.6 ± 12 µM.

B2: β-III-spectrin-FLAG fragment (amino acids 1-1066), R480W (domain or fragment)
chain: MSSTLSPTDFDSLEIQGQYSDINNRWDLPDSDWDNDSSSARLFERSRIKALADEREAVQKKTFTKWVNSHLARVTCRVGDLYSDLRDGRNLLRLLEVLSGEILPKPTKGRMRIHCLENVDKALQFLKEQKVHLENMGSHDIVDGNHRLTLGLVWTIILRFQIQDISVETEDNKEKKSAKDALLLWCQMKTAGYPNVNVHNFTTSWRDGLAFNAIVHKHRPDLLDFESLKKCNAHYNLQNAFNLAEKELGLTKLLDPEDVNVDQPDEKSIITYVATYYHYFSKMKALAVEGKRIGKVLDHAMEAERLVEKYESLASELLQWIEQTIVTLNDRQLANSLSGVQNQLQSFNSYRTVEKPPKFTEKGNLEVLLFTIQSKLRANNQKVYTPREGRLISDINKAWERLEKAEHERELALRTELIRQEKLEQLAARFDRKAAMRETWLSENQRLVSQDNFGLELAAVEAAVRKHEAIETDIVAYSGWVQAVDAVAAELAAERYHDIKRIAARQHNVARLWDFLRQMVAARRERLLLNLELQKVFQDLLYLMDWMEEMKGRLQSQDLGRHLAGVEDLLQLHELVEADIAVQAERVRAVSASALRFCNPGKEYRPCDPQLVSERVAKLEQSYEALCELAAARRARLEESRRLWRFLWEVGEAEAWVREQQHLLASADTGRDLTGALRLLNKHTALRGEMSGRLGPLKLTLEQGQQLVAEGHPGASQASARAAELQAQWERLEALAEERAQRLAQAASLYQFQADANDMEAWLVDALRLVSSPELGHDEFSTQALARQHRALEEEIRSHRPTLDALREQAAALPPTLSRTPEVQSRVPTLERHYEELQARAGERARALEAALALYTMLSEAGACGLWVEEKEQWLNGLALPERLEDLEVVQQRFETLEPEMNTLAAQITAVNDIAEQLLKANPPGKDRIVNTQEQLNHRWQQFRRLADGKKAALTSALSIQNYHLECTETQAWMREKTKVIESTQGLGNDLAGVLALQRKLAGTERDLEAIAARVGELTREANALAAGHPAQAVAINARLREVQTGWEDLRATMRRREESLGEARR
B2 displayed a Kd of 34.9 ± 14.4 µM.
